Reference: the Immune Epitope Database (IEDB)
pKd: −log10 of the molar value.

Tests used:
HLA-A*02:02 = experiment: IEDB peptide-MHC binding, purified MHC/competitive/radioactivity; filed as Kd, often an IC50 or EC50 that approximates it; ≥ and ≤ were set here for values at or beyond the usual limits of such assays
HLA-A*02:03 = experiment: as above
HLA-A*02:06 = experiment: as above
HLA-A*26:01 = experiment: as above
HLA-A*01:01 = experiment: as above
HLA-A*23:01 = experiment: as above
HLA-A*24:02 = experiment: as above
HLA-A*30:02 = experiment: as above; conditions: source organism: Dengue virus 1 Brazil/97-11/1997
HLA-A*02:01 = experiment: IEDB peptide-MHC binding, purified MHC/direct/fluorescence; filed as Kd, often an IC50 or EC50 that approximates it; ≥ and ≤ were set here for values at or beyond the usual limits of such assays; conditions: source organism: Francisella tularensis subsp. tularensis FSC198
HLA-A*69:01 = experiment: as above; conditions: source organism: Francisella tularensis subsp. tularensis FSC198
[1] = source organism: Vaccinia virus WR
[2] = source organism: Dengue virus 3 Martinique/1243/1999
[3] = source organism: Dengue virus 4 Philippines/H241/1956
[4] = source organism: Dengue virus 1 Brazil/97-11/1997
[5] = source organism: SARS coronavirus Tor2
[6] = source organism: Mammarenavirus brazilense

| Sequence | pKd (HLA-A*02:02; [1]) | pKd (HLA-A*02:03; [1]) | pKd (HLA-A*02:06; [1]) | other results |
| --- | --- | --- | --- | --- |
| ETLPELNLSL | 7.28 | 6.89 | 6.87 | – |
| DMLLNVQTLI | 7.38 | 6.79 | 6.54 | – |
| STKADAVVA | 5.09 | 5.31 | 4.79 | – |
| DVKKDLISY | – | – | – | pKd (HLA-A*26:01; source organism: Dengue virus 2 Jamaica/1409/1983): 6.43 |
| IASAPQQLCT | ≤ 4.27 | ≤ 4.15 | 5.08 | – |
| LLEQLIENI | 6.15 | 5.71 | 6.27 | – |
| ENPYKTWAY | – | – | – | pKd (HLA-A*26:01; [2]): 5.53 |
| ELEPPFGDSY | – | – | – | pKd (HLA-A*01:01; [3]): 6.93; pKd (HLA-A*26:01; [3]): 5.88 |
| RFANALLAL | – | – | – | pKd (HLA-A*23:01; [2]): 6.85; pKd (HLA-A*24:02; [2]): 6.16 |
| VLEKKVCAI | 4.84 | 5.64 | 5.47 | – |
| GWNDWQQVPF | – | – | – | pKd (HLA-A*23:01; [4]): 5.85; pKd (HLA-A*24:02; [4]): 5.76 |
| EIRGVLPEET | 5.02 | 5.31 | ≤ 4.70 | – |
| ASVKKDLISY | – | – | – | pKd (HLA-A*01:01; [4]): ≤ 4.42; pKd (HLA-A*30:02): 7.71 |
| SLPSYAAYA | – | – | – | pKd (HLA-A*02:02; [5]): 8.18; pKd (HLA-A*02:03; [5]): 8.59; pKd (HLA-A*02:06; [5]): 8.06 |
| SILEYAKSI | – | – | – | pKd (HLA-A*02:01): 6.99; pKd (HLA-A*69:01): 6.97 |
| EVERLMELPV | 5.61 | 5.84 | 5.44 | – |
| DINVIGLIVI | 5.15 | 5.55 | 5.55 | – |
| AIFNNRNLA | 6.57 | 7.01 | 8.15 | – |
| FTDCRTIDA | 4.96 | 5.57 | 5.57 | – |
| IIYSKAGNI | 5.01 | 7.90 | 4.86 | – |
| FIISTLNKIL | 5.29 | 8.74 | 8.09 | – |
| IIFWFSLEI | – | – | – | pKd (HLA-A*02:02; [5]): 8.76; pKd (HLA-A*02:03; [5]): 7.06; pKd (HLA-A*02:06; [5]): 8.33 |
| LLPDALLFTL | – | – | – | pKd (HLA-A*02:02; [6]): 8.33; pKd (HLA-A*02:03; [6]): 6.14; pKd (HLA-A*02:06; [6]): 7.10 |
| RLEVIGLTT | ≤ 4.70 | 4.86 | ≤ 4.30 | – |
